Test results from publication doi:10.64898/2025.12.22.695686.

Columns and labels:
[1] = target: Sgs1-MD (Sgs1 mucin domain repeat peptide) (Drosophila melanogaster)
[2] = target: Sgs3-MD (Sgs3 mucin domain repeat peptide) (Drosophila melanogaster)

Binder | KM for the acceptor peptide Sgs1-MD, Michaelis-Menten kinetics of O-glycosylation (UDP-Glo assay), fold against PGANT5B^WT (fold decrease) [1] | KM for the acceptor peptide Sgs3-MD, Michaelis-Menten kinetics of O-glycosylation (UDP-Glo assay), fold against the corresponding Sgs1-MD parameter [2] | KM for the acceptor peptide Sgs1-MD, Michaelis-Menten kinetics of O-glycosylation (UDP-Glo assay), fold against PGANT5B^WT [1] | KM for the acceptor peptide Sgs1-MD, Michaelis-Menten kinetics of O-glycosylation (UDP-Glo assay), fold against PGANT5A^WT [1]
PGANT5B^K419D (amino acids 77–626) (enzyme) NEINTEKSLDGESGGALIMGQGFASGGISMTYPSVVLKKWFLAPSVQEAKGKPGEMGKPVKIPADMKDLMKEKFKENQFNLLASDMISLNRSLTDVRHEGCRRKHYASKLPTTSIVIVFHNEAWTTLLRTVWSVINRSPRALLKEIILVDDASERDFLGKQLEEYVAKLPVKTFVLRTEKRSGLIRARLLGAEHVSGEVITFLDAHCECTEGWLEPLLARIVQNRRTVVCPIIDVISDETFEYITASDSTWGGFNWKLNFRWYRVPSREMARRNNDRTAPLRTPTMAGGLFSIDKDYFYEIGSYDEGMDIWGGENLEMSFRVWMCGGVLEIAPCSRVGHVFRDSTPYTFPGGTTEIVNHNNARLVEVWLDDWKEFYYSFYPGARKASAGDVSDRKALRDRLKCKSFRWYLENVYPESLMPLDYYYLGEIRNAETETCLDTMGRKYNEKVGISYCHGLGGNQVFAYTKRQQIMSDDLCLDASSSNGPVNMVRCHNMGGNQEWVYDAEEKWIRHTNTGQCLQRATRDDANTPLLRPCSYGKGQQWLMESKFK | 2 | 10 fold lower | – | –
PGANT5B^WT (amino acids 77–626) (enzyme) NEINTEKSLDGESGGALIMGQGFASGGISMTYPSVVLKKWFLAPSVQEAKGKPGEMGKPVKIPADMKDLMKEKFKENQFNLLASDMISLNRSLTDVRHEGCRRKHYASKLPTTSIVIVFHNEAWTTLLRTVWSVINRSPRALLKEIILVDDASERDFLGKQLEEYVAKLPVKTFVLRTEKRSGLIRARLLGAEHVSGEVITFLDAHCECTEGWLEPLLARIVQNRRTVVCPIIDVISDETFEYITASDSTWGGFNWKLNFRWYRVPSREMARRNNDRTAPLRTPTMAGGLFSIDKDYFYEIGSYDEGMDIWGGENLEMSFRVWMCGGVLEIAPCSRVGHVFRKSTPYTFPGGTTEIVNHNNARLVEVWLDDWKEFYYSFYPGARKASAGDVSDRKALRDRLKCKSFRWYLENVYPESLMPLDYYYLGEIRNAETETCLDTMGRKYNEKVGISYCHGLGGNQVFAYTKRQQIMSDDLCLDASSSNGPVNMVRCHNMGGNQEWVYDAEEKWIRHTNTGQCLQRATRDDANTPLLRPCSYGKGQQWLMESKFK | – | 10 fold lower | – | –
PGANT5A^WT (amino acids 77–626) (enzyme) NEINTEKSLDGESGGALIMGQGFASGGISMTYPSVVLKKWFLAPSVQEAKGKPGEMGKPVKIPADMKDLMKEKFKENQFNLLASDMISLNRSLTDVRHEGCRRKHYASKLPTTSIVIVFHNEAWTTLLRTVWSVINRSPRALLKEIILVDDASERDFLGKQLEEYVAKLPVKTFVLRTEKRSGLIRARLLGAEHVSGEVITFLDAHCECTEGWLEPLLARIVQNRRTVVCPIIDVISDETFEYITASDSTWGGFNWKLNFRWYRVPSREMARRNNDRTAPLRTPTMAGGLFSIDKDYFYEIGSYDEGMDIWGGENLEMSFRIWQCGGILEIIPCSHVGHVFRDKSPYTFPGGVAKIVLHNAARVAEVWLDEWRDFYYSMSTGARKASAGDVSDRKALRDRLKCKSFRWYLENVYPESLMPLDYYYLGEIRNAETETCLDTMGRKYNEKVGISYCHGLGGNQVFAYTKRQQIMSDDLCLDASSSNGPVNMVRCHNMGGNQEWVYDAEEKWIRHTNTGQCLQRATRDDANTPLLRPCSYGKGQQWLMESKFK | – | 10 fold lower | 0.7 fold lower | –
PGANT5A^D419K (amino acids 77–626) (enzyme) NEINTEKSLDGESGGALIMGQGFASGGISMTYPSVVLKKWFLAPSVQEAKGKPGEMGKPVKIPADMKDLMKEKFKENQFNLLASDMISLNRSLTDVRHEGCRRKHYASKLPTTSIVIVFHNEAWTTLLRTVWSVINRSPRALLKEIILVDDASERDFLGKQLEEYVAKLPVKTFVLRTEKRSGLIRARLLGAEHVSGEVITFLDAHCECTEGWLEPLLARIVQNRRTVVCPIIDVISDETFEYITASDSTWGGFNWKLNFRWYRVPSREMARRNNDRTAPLRTPTMAGGLFSIDKDYFYEIGSYDEGMDIWGGENLEMSFRIWQCGGILEIIPCSHVGHVFRKKSPYTFPGGVAKIVLHNAARVAEVWLDEWRDFYYSMSTGARKASAGDVSDRKALRDRLKCKSFRWYLENVYPESLMPLDYYYLGEIRNAETETCLDTMGRKYNEKVGISYCHGLGGNQVFAYTKRQQIMSDDLCLDASSSNGPVNMVRCHNMGGNQEWVYDAEEKWIRHTNTGQCLQRATRDDANTPLLRPCSYGKGQQWLMESKFK | – | 10 fold lower | – | 0.6 fold higher
